# ± gives the standard deviation of the averaged measurements.
# B1: library; a variant is named by its letters at N, in order (parent)
# chain: GCUGUCACCGGUGCUUGGUACGUUAUAUUCAGCCGGUCUGAUGAGUCUNNNNNNAGACGAAACAGC
# Columns and labels:
# (6R,S)-folinic acid [1] = variants of: B1; experiment: normalized RNA/DNA level without ligand (relative to sTRSVctl = 100) (log10 (% of sTRSVctl)); HEK293T overexpressing SLC46A1; higher = less ribozyme self-cleavage, higher mRNA level; settings: without (6R,S)-folinic acid; ligand present: no
# How it was run: (§1)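 Ribozyme switch library plasmids with mCherry reporters (eGFP in certain ligand experiments) went into HEK293T cells at 4 µg per 6-well well. Where ligand was used, it was applied 1 h before transfection, and total RNA was extracted with EDTA 72 h later for reverse transcription, amplification, barcoding and sequencing. RNA level is the RNA-to-DNA read ratio normalized to a spiked-in non-cleaving sequence or to the leading sequences, then scaled and log-transformed. Scaling was ×100 with log10, the leading set comprised 25 sequences, and the cutoff was ≥100 DNA reads.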
# (6R,S)-folinic acid [2] = variants of: B1; experiment: normalized RNA/DNA level with ligand (relative to sTRSVctl = 100) (log10 (% of sTRSVctl)); HEK293T overexpressing SLC46A1; ligand concentration (+) RNA-Seq: 6 mM; higher = less ribozyme self-cleavage, higher mRNA level; settings: with (6R,S)-folinic acid; ligand present: yes
# How it was run: as §1
variant,measurement,setting,value
GUGUUC,normalized RNA/DNA level without ligand (log10),"(6R,S)-folinic acid [1]",2.01 ± 0.031
same,normalized RNA/DNA level with ligand (log10),"(6R,S)-folinic acid [2]",2.012 ± 0.0073
GUGUUA,normalized RNA/DNA level without ligand (log10),"(6R,S)-folinic acid [1]",1.988 ± 0.015
same,normalized RNA/DNA level with ligand (log10),"(6R,S)-folinic acid [2]",2.01 ± 0.025
AUGAGG,normalized RNA/DNA level without ligand (log10),"(6R,S)-folinic acid [1]",1.812 ± 0.017
same,normalized RNA/DNA level with ligand (log10),"(6R,S)-folinic acid [2]",2.009 ± 0.013
GUGCAA,normalized RNA/DNA level without ligand (log10),"(6R,S)-folinic acid [1]",1.975 ± 0.0071
same,normalized RNA/DNA level with ligand (log10),"(6R,S)-folinic acid [2]",1.999 ± 0.01
GUGCAG,normalized RNA/DNA level without ligand (log10),"(6R,S)-folinic acid [1]",1.931 ± 0.0076
same,normalized RNA/DNA level with ligand (log10),"(6R,S)-folinic acid [2]",2.01 ± 0.021
GUGCAC,normalized RNA/DNA level without ligand (log10),"(6R,S)-folinic acid [1]",1.935 ± 0.0098
same,normalized RNA/DNA level with ligand (log10),"(6R,S)-folinic acid [2]",2 ± 0.0049
GUGCAU,normalized RNA/DNA level without ligand (log10),"(6R,S)-folinic acid [1]",1.973 ± 0.0054
same,normalized RNA/DNA level with ligand (log10),"(6R,S)-folinic acid [2]",2.02 ± 0.051
AUGGGU,normalized RNA/DNA level without ligand (log10),"(6R,S)-folinic acid [1]",1.82 ± 0.006
same,normalized RNA/DNA level with ligand (log10),"(6R,S)-folinic acid [2]",1.998 ± 0.0034
AUGGGC,normalized RNA/DNA level without ligand (log10),"(6R,S)-folinic acid [1]",2.014 ± 0.0055
same,normalized RNA/DNA level with ligand (log10),"(6R,S)-folinic acid [2]",2.03 ± 0.041
GUGGUC,normalized RNA/DNA level without ligand (log10),"(6R,S)-folinic acid [1]",2.02 ± 0.023
same,normalized RNA/DNA level with ligand (log10),"(6R,S)-folinic acid [2]",2 ± 0.029
GUGGUA,normalized RNA/DNA level without ligand (log10),"(6R,S)-folinic acid [1]",1.913 ± 0.0048
same,normalized RNA/DNA level with ligand (log10),"(6R,S)-folinic acid [2]",1.97 ± 0.019
CUGGCG,normalized RNA/DNA level without ligand (log10),"(6R,S)-folinic acid [1]",1.99 ± 0.026
same,normalized RNA/DNA level with ligand (log10),"(6R,S)-folinic acid [2]",2.03 ± 0.037
CUGGCC,normalized RNA/DNA level without ligand (log10),"(6R,S)-folinic acid [1]",2.079 ± 0.011
same,normalized RNA/DNA level with ligand (log10),"(6R,S)-folinic acid [2]",2.03 ± 0.032
CUGGCA,normalized RNA/DNA level without ligand (log10),"(6R,S)-folinic acid [1]",1.999 ± 0.0069
same,normalized RNA/DNA level with ligand (log10),"(6R,S)-folinic acid [2]",1.98 ± 0.042
UUGACC,normalized RNA/DNA level without ligand (log10),"(6R,S)-folinic acid [1]",2.04 ± 0.0038
same,normalized RNA/DNA level with ligand (log10),"(6R,S)-folinic acid [2]",2.04 ± 0.032
UUGACA,normalized RNA/DNA level without ligand (log10),"(6R,S)-folinic acid [1]",1.956 ± 0.018
same,normalized RNA/DNA level with ligand (log10),"(6R,S)-folinic acid [2]",1.98 ± 0.021
UUGACG,normalized RNA/DNA level without ligand (log10),"(6R,S)-folinic acid [1]",1.866 ± 0.0091
same,normalized RNA/DNA level with ligand (log10),"(6R,S)-folinic acid [2]",1.996 ± 0.019
UUGACU,normalized RNA/DNA level without ligand (log10),"(6R,S)-folinic acid [1]",2.0063 ± 0.0015
same,normalized RNA/DNA level with ligand (log10),"(6R,S)-folinic acid [2]",2.04 ± 0.053
AUGAUA,normalized RNA/DNA level without ligand (log10),"(6R,S)-folinic acid [1]",1.946 ± 0.017
same,normalized RNA/DNA level with ligand (log10),"(6R,S)-folinic acid [2]",2.002 ± 0.019
AUGAUC,normalized RNA/DNA level without ligand (log10),"(6R,S)-folinic acid [1]",2.07 ± 0.028
same,normalized RNA/DNA level with ligand (log10),"(6R,S)-folinic acid [2]",2.06 ± 0.032
AUGGUC,normalized RNA/DNA level without ligand (log10),"(6R,S)-folinic acid [1]",2.055 ± 0.0035
same,normalized RNA/DNA level with ligand (log10),"(6R,S)-folinic acid [2]",2.04 ± 0.029
GUCUCC,normalized RNA/DNA level without ligand (log10),"(6R,S)-folinic acid [1]",2.032 ± 0.015
same,normalized RNA/DNA level with ligand (log10),"(6R,S)-folinic acid [2]",2.024 ± 0.0098
GUCUCU,normalized RNA/DNA level without ligand (log10),"(6R,S)-folinic acid [1]",2.0436 ± 0.00093
same,normalized RNA/DNA level with ligand (log10),"(6R,S)-folinic acid [2]",2.03 ± 0.044
GUCUCA,normalized RNA/DNA level without ligand (log10),"(6R,S)-folinic acid [1]",2.0197 ± 0.0003
same,normalized RNA/DNA level with ligand (log10),"(6R,S)-folinic acid [2]",2.01 ± 0.027
UUGUUC,normalized RNA/DNA level without ligand (log10),"(6R,S)-folinic acid [1]",2.056 ± 0.017
same,normalized RNA/DNA level with ligand (log10),"(6R,S)-folinic acid [2]",2.08 ± 0.047
UUGUUG,normalized RNA/DNA level without ligand (log10),"(6R,S)-folinic acid [1]",1.96 ± 0.026
same,normalized RNA/DNA level with ligand (log10),"(6R,S)-folinic acid [2]",2.05 ± 0.027
CUCUUG,normalized RNA/DNA level without ligand (log10),"(6R,S)-folinic acid [1]",2.04 ± 0.021
same,normalized RNA/DNA level with ligand (log10),"(6R,S)-folinic acid [2]",2.03 ± 0.028
CUCUUC,normalized RNA/DNA level without ligand (log10),"(6R,S)-folinic acid [1]",2.063 ± 0.0046
same,normalized RNA/DNA level with ligand (log10),"(6R,S)-folinic acid [2]",2.01 ± 0.024
CUCUUU,normalized RNA/DNA level without ligand (log10),"(6R,S)-folinic acid [1]",2.013 ± 0.011
same,normalized RNA/DNA level with ligand (log10),"(6R,S)-folinic acid [2]",2.02 ± 0.041
UUGGAC,normalized RNA/DNA level without ligand (log10),"(6R,S)-folinic acid [1]",1.972 ± 0.015
same,normalized RNA/DNA level with ligand (log10),"(6R,S)-folinic acid [2]",1.98 ± 0.032
UUGGAU,normalized RNA/DNA level without ligand (log10),"(6R,S)-folinic acid [1]",1.971 ± 0.012
same,normalized RNA/DNA level with ligand (log10),"(6R,S)-folinic acid [2]",2.022 ± 0.012
UUGUAA,normalized RNA/DNA level without ligand (log10),"(6R,S)-folinic acid [1]",1.943 ± 0.011
same,normalized RNA/DNA level with ligand (log10),"(6R,S)-folinic acid [2]",2.003 ± 0.016
UUGUAC,normalized RNA/DNA level without ligand (log10),"(6R,S)-folinic acid [1]",1.9902 ± 0.00038
same,normalized RNA/DNA level with ligand (log10),"(6R,S)-folinic acid [2]",2.02 ± 0.045
UUGGCC,normalized RNA/DNA level without ligand (log10),"(6R,S)-folinic acid [1]",2.046 ± 0.019
same,normalized RNA/DNA level with ligand (log10),"(6R,S)-folinic acid [2]",2.03 ± 0.05
UUGGCU,normalized RNA/DNA level without ligand (log10),"(6R,S)-folinic acid [1]",2.055 ± 0.0023
same,normalized RNA/DNA level with ligand (log10),"(6R,S)-folinic acid [2]",2.04 ± 0.041
UUGGCG,normalized RNA/DNA level without ligand (log10),"(6R,S)-folinic acid [1]",1.8766 ± 0.00065
same,normalized RNA/DNA level with ligand (log10),"(6R,S)-folinic acid [2]",2.03 ± 0.062
UUGGCA,normalized RNA/DNA level without ligand (log10),"(6R,S)-folinic acid [1]",2.013 ± 0.011
same,normalized RNA/DNA level with ligand (log10),"(6R,S)-folinic acid [2]",2.06 ± 0.035
GUGAGC,normalized RNA/DNA level without ligand (log10),"(6R,S)-folinic acid [1]",1.74 ± 0.024
same,normalized RNA/DNA level with ligand (log10),"(6R,S)-folinic acid [2]",1.962 ± 0.011
GUGAGU,normalized RNA/DNA level without ligand (log10),"(6R,S)-folinic acid [1]",1.96 ± 0.025
same,normalized RNA/DNA level with ligand (log10),"(6R,S)-folinic acid [2]",2.03 ± 0.025
UUCUAC,normalized RNA/DNA level without ligand (log10),"(6R,S)-folinic acid [1]",2.03 ± 0.029
same,normalized RNA/DNA level with ligand (log10),"(6R,S)-folinic acid [2]",1.98 ± 0.061
UUCUAU,normalized RNA/DNA level without ligand (log10),"(6R,S)-folinic acid [1]",1.994 ± 0.0097
same,normalized RNA/DNA level with ligand (log10),"(6R,S)-folinic acid [2]",2.05 ± 0.04
GUGUAU,normalized RNA/DNA level without ligand (log10),"(6R,S)-folinic acid [1]",1.962 ± 0.0048
same,normalized RNA/DNA level with ligand (log10),"(6R,S)-folinic acid [2]",2.01 ± 0.022
AUCUUC,normalized RNA/DNA level without ligand (log10),"(6R,S)-folinic acid [1]",2.07 ± 0.022
same,normalized RNA/DNA level with ligand (log10),"(6R,S)-folinic acid [2]",2.05 ± 0.045
AUCUUU,normalized RNA/DNA level without ligand (log10),"(6R,S)-folinic acid [1]",2.07 ± 0.025
same,normalized RNA/DNA level with ligand (log10),"(6R,S)-folinic acid [2]",2.087 ± 0.017
UUGAAU,normalized RNA/DNA level without ligand (log10),"(6R,S)-folinic acid [1]",1.955 ± 0.0032
same,normalized RNA/DNA level with ligand (log10),"(6R,S)-folinic acid [2]",2.01 ± 0.025
UUGAAC,normalized RNA/DNA level without ligand (log10),"(6R,S)-folinic acid [1]",2 ± 0.023
same,normalized RNA/DNA level with ligand (log10),"(6R,S)-folinic acid [2]",2.025 ± 0.016
AUGCUA,normalized RNA/DNA level without ligand (log10),"(6R,S)-folinic acid [1]",2.021 ± 0.0056
same,normalized RNA/DNA level with ligand (log10),"(6R,S)-folinic acid [2]",2.01 ± 0.024
AUGCUG,normalized RNA/DNA level without ligand (log10),"(6R,S)-folinic acid [1]",1.986 ± 0.003
same,normalized RNA/DNA level with ligand (log10),"(6R,S)-folinic acid [2]",2 ± 0.017
AUGCUC,normalized RNA/DNA level without ligand (log10),"(6R,S)-folinic acid [1]",2.053 ± 0.0063
same,normalized RNA/DNA level with ligand (log10),"(6R,S)-folinic acid [2]",2.03 ± 0.053
AUGCUU,normalized RNA/DNA level without ligand (log10),"(6R,S)-folinic acid [1]",2.006 ± 0.018
same,normalized RNA/DNA level with ligand (log10),"(6R,S)-folinic acid [2]",2.037 ± 0.014
CUGUCG,normalized RNA/DNA level without ligand (log10),"(6R,S)-folinic acid [1]",2 ± 0.031
same,normalized RNA/DNA level with ligand (log10),"(6R,S)-folinic acid [2]",2.06 ± 0.065
CUGUCU,normalized RNA/DNA level without ligand (log10),"(6R,S)-folinic acid [1]",2.037 ± 0.0082
same,normalized RNA/DNA level with ligand (log10),"(6R,S)-folinic acid [2]",2.04 ± 0.034
CUGUCA,normalized RNA/DNA level without ligand (log10),"(6R,S)-folinic acid [1]",2.033 ± 0.011
same,normalized RNA/DNA level with ligand (log10),"(6R,S)-folinic acid [2]",2.07 ± 0.039
CUGUCC,normalized RNA/DNA level without ligand (log10),"(6R,S)-folinic acid [1]",2.059 ± 0.0043
same,normalized RNA/DNA level with ligand (log10),"(6R,S)-folinic acid [2]",2.043 ± 0.017
CUCUAC,normalized RNA/DNA level without ligand (log10),"(6R,S)-folinic acid [1]",2.0423 ± 0.0006
same,normalized RNA/DNA level with ligand (log10),"(6R,S)-folinic acid [2]",2.04 ± 0.023
CUCUAA,normalized RNA/DNA level without ligand (log10),"(6R,S)-folinic acid [1]",1.997 ± 0.017
same,normalized RNA/DNA level with ligand (log10),"(6R,S)-folinic acid [2]",2.01 ± 0.044
CUCUAG,normalized RNA/DNA level without ligand (log10),"(6R,S)-folinic acid [1]",2.001 ± 0.019
same,normalized RNA/DNA level with ligand (log10),"(6R,S)-folinic acid [2]",2.02 ± 0.083
CUCUAU,normalized RNA/DNA level without ligand (log10),"(6R,S)-folinic acid [1]",2.012 ± 0.0028
same,normalized RNA/DNA level with ligand (log10),"(6R,S)-folinic acid [2]",2.03 ± 0.049

# — the supplement of paper PMC6757056
